US20260242759A1, “GQ/11 Protein Peptidomimetics” (Vrije Universiteit Brussel, priority 2022, published 2026)
Positions of bridges follow the written chain, without caps; N, C: chain ends. Non-standard residues stand in square brackets, D forms with d. Residues, ends and D or L forms follow the SMILES beside them. Triazole bridges read from a SMILES are 1,4-linked. Lys(N3) = [N-]=[N+]=NCCCC[C@H](N)C(=O)O; Cha = N[C@@H](CC1CCCCC1)C(=O)O; Pra = C#CC[C@H](N)C(=O)O

Columns and labels:
MTT cytotoxicity assay = assay type: cell-based, human; conditions: human, HEK293 1C8 cells, 3 h 45 min, read-out: cell viability
Description: (§1) Cells were washed two times with PBS and incubated with 3-(4,5-dimethylthiazol-2-yl)-2,5-diphenyltetrazolium bromide (MTT) during 3 h, at 37° C. Afterwards, cells were washed once with PBS and then incubated for 10 min with DMSO. Plates were analysed with a Tecan Spark 10 M microplate reader.
(§2) An MTT assay was used to assess the cytotoxicity of the non-fluorescent Gq/11 peptidomimetics of Example 5. An MTT assay is a colorimetric test that evaluates the cell metabolic activity and reflects the cell viability.

[1] = test system: HEK293 cells overexpressing the ghrelin receptor; assay: Fluorescence microscopy of cell permeability; assay type: cell-based, human; conditions: 5 μM, 3 h 45 min, 37° C.
Description: To visualise cell-penetration of the peptides, HEK293 1C8 cells were seeded in 12-well plates, covered with a coverslip, at 120,000 cells/well. After overnight incubation (37° C., 5% CO2), cells were washed with PBS and treated with the fluorescently labeled peptides for 2 h45. Next, BG-fluorescein was added to the mixture, for Snap tag labeling of the cell-surface GHSR. After incubation of 1 h the cells were washed four times with PBS. Cells were then fixed using 4% paraformaldehyde in PBS for 5 min and washed two times with PBS. Finally, Hoechst was diluted 1/1000 in PBS, added to the fixed cells during 10 min, and washed thrice with PBS.
The cells for permeabilization were first incubated with BG-fluorescein during 1 h, followed by four times washing with PBS. The cells were then fixed with 4% paraformaldehyde in PBS for 5 min washed twice. Afterwards, the cells were permeabilized with Triton 0.1% in PBS during 5 min and washed thrice. Finally, the cells were incubated for 3 h 45 with the peptide and washed three times before Hoechst was added for 10 min.
The SulfoCy5-labeled Gq/11 peptidomimetics of Example 5 were also analyzed by fluorescence microscopy to investigate their cell membrane permeability. HEK293 cells overexpressing the ghrelin receptor were seeded overnight on microscope slides. The cells were incubated with 5 μM of SulfoCy5-labeled Gq/11 peptidomimetics for 3 h 45 min at 37° C., followed by Hoechst staining for visualizing the nucleus. The cell membrane was visualized by staining the cell surface ghrelin receptors with fluorescein.

[2] = biological target: purified bimane labeled ghrelin receptor (human, cysmin mutant, in lipidated nanodiscs) (human) (UniProt Q92847); assay: cell-based or functional assay
Chain of purified bimane labeled ghrelin receptor (human, cysmin mutant, in lipidated nanodiscs) (human) (Q92847 other isoform, or with tags, fused parts or gaps mutant): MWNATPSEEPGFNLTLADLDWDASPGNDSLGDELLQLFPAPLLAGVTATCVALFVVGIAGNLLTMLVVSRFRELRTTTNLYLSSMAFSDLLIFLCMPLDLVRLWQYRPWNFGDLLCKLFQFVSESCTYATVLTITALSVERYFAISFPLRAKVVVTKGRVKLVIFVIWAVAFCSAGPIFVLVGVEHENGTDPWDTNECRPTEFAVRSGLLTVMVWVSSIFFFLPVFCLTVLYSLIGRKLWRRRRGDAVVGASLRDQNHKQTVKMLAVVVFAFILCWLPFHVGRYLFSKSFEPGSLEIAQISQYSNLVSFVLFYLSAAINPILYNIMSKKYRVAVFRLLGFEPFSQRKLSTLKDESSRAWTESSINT

HEK293 1C8 cells = assay: MTT cytotoxicity assay; assay type: cell-based, human; conditions: varying concentrations up to 40 μM, 3 h 45 min
Description: as §1, §2

[3] = biological target: T1, full-length human muscarinic 1 receptor with a FLAG tag at the N-terminus (human, UniProt P11229 1-460); assay: cell-based or functional assay
T1 sequence: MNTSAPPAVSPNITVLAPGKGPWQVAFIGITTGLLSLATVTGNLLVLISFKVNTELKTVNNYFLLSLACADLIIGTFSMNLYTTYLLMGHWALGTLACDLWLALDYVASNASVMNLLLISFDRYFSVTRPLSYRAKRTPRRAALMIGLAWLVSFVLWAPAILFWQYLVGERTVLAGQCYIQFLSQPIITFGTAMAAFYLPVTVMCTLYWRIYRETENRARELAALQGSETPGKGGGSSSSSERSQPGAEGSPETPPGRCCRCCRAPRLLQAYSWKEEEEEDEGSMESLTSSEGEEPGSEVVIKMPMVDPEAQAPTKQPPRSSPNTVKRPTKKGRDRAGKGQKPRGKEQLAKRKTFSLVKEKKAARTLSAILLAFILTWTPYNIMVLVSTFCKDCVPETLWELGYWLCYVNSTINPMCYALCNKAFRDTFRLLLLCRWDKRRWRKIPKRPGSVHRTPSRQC

[4] = biological target: T2, ghrelin receptor overexpressed on HEK293 cells (UniProt Q92847 1-366, limits assumed); assay: cell-based or functional assay
T2 sequence (Q92847 whole entry): as the sequence (Q92847 other isoform, or with tags, fused parts or gaps mutant) above, with S146C, S304C counted along it

[5] = biological target: T2, ghrelin receptor overexpressed on …; assay: cell-based or functional assay; remark: listed apart in the source

CC[C@H](C)[C@H](NC(=O)[C@@H]1CCCCn2cc(nn2)C[C@H](NC(=O)[C@H](C)NC(=O)[C@H](Cc2ccccc2)NC(=O)[C@H](CCCNC(=N)N)NC(=O)[C@H](CCCNC(=N)N)NC(=O)[C@H](CCCNC(=N)N)NC(=O)[C@H](CCCNC(=N)N)NC(=O)[C@H](CCCNC(=N)N)NC(=O)[C@H](CCCNC(=N)N)NC(=O)[C@H](CCCNC(=N)N)NC(=O)[C@@H](N)CCCNC(=N)N)C(=O)N[C@@H](C(C)C)C(=O)N[C@@H](CCCCN)C(=O)N[C@@H](CC(=O)O)C(=O)N1)C(=O)N[C@@H](CC(C)C)C(=O)N[C@@H](CCC(N)=O)C(=O)N[C@@H](CC(C)C)C(=O)N[C@@H](CC(N)=O)C(=O)N[C@@H](CC(C)C)C(=O)N[C@@H](CCCCN)C(=O)N[C@@H](CCC(=O)O)C(=O)N[C@@H](Cc1ccc(O)cc1)C(=O)N[C@@H](CC(N)=O)C(=O)N[C@@H](CC(C)C)C(=O)N[C@H](C(=O)O)C(C)C [SBL-GQ-15] (H-RRRRRRRRFA[Pra]VKD[Lys(N3)]ILQLNLKEYNLV-OH; triazole 11-15)
viability at 5 µM (MTT cytotoxicity assay): ~90% | viability at 10 µM (MTT cytotoxicity assay): ~70% | viability at 40 µM (MTT cytotoxicity assay): ~50%

H-C(SulfoCy5)-Ahx-RRRRFAc[PraVKDAzk]ILQLNLKEYNLV-OH [SBL-GQ-22]
SulfoCy5-labeled peptide observed inside cells [1]: very little or no

H-C(SulfoCy5)-Ahx-RRWWRRWRRFAc[PraVKDAzk]ILQLNLKEYNLV-OH [SBL-GQ-24]
SulfoCy5-labeled peptide observed inside cells [1]: entered cells

dynorphin [reference compound]
SulfoCy5-labeled peptide observed inside cells [1]: very little or no

purified Gαqβ1γ2 heterotrimer
bimane maximum emission wavelength, with agonist JMV1843 [2]: 480 nm

H-C(SulfoCy5)-Ahx-RRRRRRRRFAc[PraVKDAzk]ILQLNLKEYNLV-OH [SBL-GQ-23]
SulfoCy5-labeled peptide observed inside cells [1]: entered cells

H-C(SulfoCy5)-Ahx-KKKFAc[PraVKDAzk]ILQLNLKEYNLV-OH [SBL-GQ-21]
SulfoCy5-labeled peptide observed inside cells [1]: very little or no

CC[C@H](C)[C@H](NC(=O)[C@@H]1CCCCn2cc(nn2)C[C@H](NC(=O)[C@H](C)NC(=O)[C@H](Cc2ccccc2)NC(=O)[C@H](CCCCN)NC(=O)[C@H](CCCCN)NC(=O)[C@@H](N)CCCCN)C(=O)N[C@@H](C(C)C)C(=O)N[C@@H](CCCCN)C(=O)N[C@@H](CC(=O)O)C(=O)N1)C(=O)N[C@@H](CC(C)C)C(=O)N[C@@H](CCC(N)=O)C(=O)N[C@@H](CC(C)C)C(=O)N[C@@H](CC(N)=O)C(=O)N[C@@H](CC(C)C)C(=O)N[C@@H](CCCCN)C(=O)N[C@@H](CCC(=O)O)C(=O)N[C@@H](Cc1ccc(O)cc1)C(=O)N[C@@H](CC(N)=O)C(=O)N[C@@H](CC(C)C)C(=O)N[C@H](C(=O)O)C(C)C [SBL-GQ-13] (H-KKKFA[Pra]VKD[Lys(N3)]ILQLNLKEYNLV-OH; triazole 6-10)
cytotoxicity / viability (HEK293 1C8 cells): No cytotoxicity

CC[C@H](C)[C@H](NC(=O)[C@@H]1CCCCn2cc(nn2)C[C@H](NC(=O)[C@H](C)NC(=O)[C@H](Cc2ccccc2)NC(=O)[C@H](CCCNC(=N)N)NC(=O)[C@H](CCCNC(=N)N)NC(=O)[C@H](Cc2c[nH]c3ccccc23)NC(=O)[C@H](CCCNC(=N)N)NC(=O)[C@H](CCCNC(=N)N)NC(=O)[C@H](Cc2c[nH]c3ccccc23)NC(=O)[C@H](Cc2c[nH]c3ccccc23)NC(=O)[C@H](CCCNC(=N)N)NC(=O)[C@@H](N)CCCNC(=N)N)C(=O)N[C@@H](C(C)C)C(=O)N[C@@H](CCCCN)C(=O)N[C@@H](CC(=O)O)C(=O)N1)C(=O)N[C@@H](CC(C)C)C(=O)N[C@@H](CCC(N)=O)C(=O)N[C@@H](CC(C)C)C(=O)N[C@@H](CC(N)=O)C(=O)N[C@@H](CC(C)C)C(=O)N[C@@H](CCCCN)C(=O)N[C@@H](CCC(=O)O)C(=O)N[C@@H](Cc1ccc(O)cc1)C(=O)N[C@@H](CC(N)=O)C(=O)N[C@@H](CC(C)C)C(=O)N[C@H](C(=O)O)C(C)C [SBL-GQ-25] (H-RRWWRRWRRFA[Pra]VKD[Lys(N3)]ILQLNLKEYNLV-OH; triazole 12-16)
viability at 5 µM (MTT cytotoxicity assay): ~90% | viability at 10 µM (MTT cytotoxicity assay): ~85% | viability at 40 µM (MTT cytotoxicity assay): ~50%

Ac-KKKFA[Pra]VKD[Lys(N3)]ILQLNLKEYNLV-OH (triazole 6-10) [SBL-GQ-05]
IC50 (µM) of the agonist acetylcholine chloride for the M1 receptor in the presence of the peptidomimetic, RLA [3]: 330 µM | Shift (IC50 ratio without/with peptidomimetic), RLA [3]: 1 | EC50 (M) of the MK0677 agonist, IP-One Gq assay, peptidomimetic at 10 µM, n = 1 [4]: 9.99e-10 M | EC50 (M) of the MK0677 agonist, IP-One Gq assay, peptidomimetic at 10 µM, n = 2 [4]: 1.53e-10 M | EC50 (M) of the MK0677 agonist, IP-One Gq assay, peptidomimetic at 10 µM, n = 3 [4]: 1.1e-10 M | bimane emission as percent of the effect of the Gq protein, highest peptide concentrations [2]: 90% | bimane maximum emission wavelength, with agonist JMV1843 [2]: 478 nm

Ac-KKKFA[Pra]VKD[Lys(N3)]ILQLNLKEYN[Cha]V-OH (triazole 6-10) [SBL-GQ-06]
IC50 (µM) of the agonist acetylcholine chloride for the M1 receptor in the presence of the peptidomimetic, RLA [3]: 54.4 µM | Shift (IC50 ratio without/with peptidomimetic), RLA [3]: 8 | bimane maximum emission wavelength, with agonist JMV1843 [2]: 478 nm

Ac-KKKFN[Pra]CKD[Lys(N3)]ILQMNLREYNLV-OH (triazole 6-10) [SBL-GQ-11]
IC50 (µM) of the agonist acetylcholine chloride for the M1 receptor in the presence of the peptidomimetic, RLA [3]: 57.7 µM | Shift (IC50 ratio without/with peptidomimetic), RLA [3]: 7 | bimane maximum emission wavelength, with agonist JMV1843 [2]: 478 nm

Ac-KKKFN[Pra]CKD[Lys(N3)]ILQMNLREYN[Cha]V-OH (triazole 6-10) [SBL-GQ-12]
IC50 (µM) of the agonist acetylcholine chloride for the M1 receptor in the presence of the peptidomimetic, RLA [3]: 13.7 µM | Shift (IC50 ratio without/with peptidomimetic), RLA [3]: 34 | bimane maximum emission wavelength, with agonist JMV1843 [2]: 478 nm

B1: SBL-GQ-04 (peptide)
peptide: Ac-KKKFAAVKDTILQLNLKEYN[Cha]V-OH
SMILES: CC[C@H](C)[C@H](NC(=O)[C@@H](NC(=O)[C@H](CC(=O)O)NC(=O)[C@H](CCCCN)NC(=O)[C@@H](NC(=O)[C@H](C)NC(=O)[C@H](C)NC(=O)[C@H](Cc1ccccc1)NC(=O)[C@H](CCCCN)NC(=O)[C@H](CCCCN)NC(=O)[C@H](CCCCN)NC(C)=O)C(C)C)[C@@H](C)O)C(=O)N[C@@H](CC(C)C)C(=O)N[C@@H](CCC(N)=O)C(=O)N[C@@H](CC(C)C)C(=O)N[C@@H](CC(N)=O)C(=O)N[C@@H](CC(C)C)C(=O)N[C@@H](CCCCN)C(=O)N[C@@H](CCC(=O)O)C(=O)N[C@@H](Cc1ccc(O)cc1)C(=O)N[C@@H](CC(N)=O)C(=O)N[C@@H](CC1CCCCC1)C(=O)N[C@H](C(=O)O)C(C)C
IC50 (µM) of the agonist acetylcholine chloride for the M1 receptor in the presence of the peptidomimetic, RLA [3]: 213 µM | Shift (IC50 ratio without/with peptidomimetic), RLA [3]: 4 | EC50 (M) of the MK0677 agonist, IP-One Gq assay, SBL-GQ-04 5 µM, n = 1 [5]: 3.18e-10 M | EC50 (M) of the MK0677 agonist, IP-One Gq assay, SBL-GQ-04 5 µM, n = 2 [5]: 1.41e-10 M | EC50 (M) of the MK0677 agonist, IP-One Gq assay, peptidomimetic at 10 µM, n = 1 [4]: 4.42e-10 M | EC50 (M) of the MK0677 agonist, IP-One Gq assay, peptidomimetic at 10 µM, n = 2 [4]: 9.46e-11 M | EC50 (M) of the MK0677 agonist, IP-One Gq assay, peptidomimetic at 10 µM, n = 3 [4]: 9.87e-11 M

H-RRRRRRRRFA[Pra]VKD[Lys(N3)]ILQLNLKEYNLV-OH (triazole 11-15) [SBL-GQ-15]
EC50 (M) of the MK0677 agonist, IP-One Gq assay, SBL-GQ-15 5 µM, n = 1 [5]: 2.55e-10 M | EC50 (M) of the MK0677 agonist, IP-One Gq assay, SBL-GQ-15 5 µM, n = 2 [5]: 8.07e-11 M | EC50 (M) of the MK0677 agonist, IP-One Gq assay, peptidomimetic at 10 µM, n = 1 [4]: 2.75e-10 M | EC50 (M) of the MK0677 agonist, IP-One Gq assay, peptidomimetic at 10 µM, n = 2 [4]: 1.07e-10 M | EC50 (M) of the MK0677 agonist, IP-One Gq assay, peptidomimetic at 10 µM, n = 3 [4]: 7.18e-11 M

H-RRWWRRWRRFA[Pra]VKD[Lys(N3)]ILQLNLKEYNLV-OH (triazole 12-16) [SBL-GQ-25]
EC50 (M) of the MK0677 agonist, IP-One Gq assay, SBL-GQ-25 5 µM, n = 1 [5]: 7.82e-10 M | EC50 (M) of the MK0677 agonist, IP-One Gq assay, SBL-GQ-25 5 µM, n = 2 [5]: 1.7e-10 M | EC50 (M) of the MK0677 agonist, IP-One Gq assay, SBL-GQ-25 10 µM, n = 1 [5]: 1.54e-09 M | EC50 (M) of the MK0677 agonist, IP-One Gq assay, SBL-GQ-25 10 µM, n = 2 [5]: 4.65e-10 M
